Earlier results in paper PMC6272133.

Molecular target: LLT1 (Homo sapiens) (UniProt Q9UHP7)
Assay: SPR

Sequence of UniProt Q9UHP7 (Q9UHP7 60-191): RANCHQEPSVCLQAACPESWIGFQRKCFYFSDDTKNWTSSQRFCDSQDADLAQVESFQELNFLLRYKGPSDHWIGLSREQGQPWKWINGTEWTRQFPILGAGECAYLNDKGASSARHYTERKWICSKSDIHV

NKRP1A ECD (from UniProt Q12918)
Kd: 48 µM
